Substrate in data set [1]: OC[C@H]1O[C@@](CO)(O[C@H]2O[C@H](CO)[C@@H](O)[C@H](O)[C@H]2O)[C@@H](O)[C@@H]1O
The data set can be described thus: glucose release, glucose oxidase-peroxidase, Lineweaver-Burk. Type of data set: biochemical, Apis cerana. Particulars: 0-20 mM substrate, sodium phosphate pH 5.5, 37°C (assay 'as above'), partially purified enzyme.
Source text: glucose release, glucose oxidase-peroxidase, Lineweaver-Burk on rAciHBGase II-(His)6

Substrate in data set [2]: O=[N+]([O-])c1ccc(O[C@H]2O[C@H](CO)[C@@H](O)[C@H](O)[C@H]2O)cc1
The data set is described as follows: purified protein. Particulars: 0-25 mM substrate, sodium phosphate pH 5.5, 37°C (assay 'as above'), partially purified enzyme.

One protein from paper PMC3599193, “Expression of a secretory α-glucosidase II from Apis cerana indica in Pichia pastoris and its characterization” (BMC Biotechnology, 2013) can be followed below.

As a reminder, the Km is the substrate concentration at which the rate is half of its maximum. As usually defined, the kcat is the number of substrate molecules converted per active site and unit of time at saturation.

B1: rAciHBGase II-(His)6 (Apis cerana indica) (protein)
chain: FRATITVPCLLLVASLVNSVDVNWYKNALVYQIYPRSFQDSNGDGIGDLNGITARIDHIADIGAQALWLSPIYKSPQVDFGYDISNFTDVDPDYGTLADFDRLVRRAKTLGLKVILDFVPNHSSHEHPWFKKSVQRIKPYDEYYVWRDARIVNGTRQPPNNWLSVFWGSAWEWNDVRQQYYLHQFAAGQPDLNYRSAALDQEMKNVLTFWMDRGVDGFRIDAINHMFEDKRLLDEPSANRTDLSKDDYESLVHVYTRDQNETYDVSRSWRNLMDEHSNRTNSDPRMILTEAYTEFNLTVKYYKSGSTVPFNFMFITDLNNQSTASDFKQLIDRWVGNVPNGSVTNWVSGNHDNHRVASRFGRQRADEILMLTLTLPGIGVVYNGDEIGMEDRPFTYAETVDPAGCNAGPAKYYLKSRDPERTPYQWDNSTSAGFSDRNKTWLPVNDNSRSLNLAAQKKEYYSHYVAFKSMSYLKKQPVIANGSLEVDVIDGKVLSVKRKLGNDTVIVMVNFSKNPVTINMSTLHPPADLVVYANNVIGSGLSHGNWIYPTSMTIPGSNSAIFTNYKLYWRYWQGVDGL
notes: full-length cDNA (1,740 bp, 579 residues) in pPICZalphaA (EcoRI/KpnI), secreted from Pichia pastoris GS115, C-terminal His6 kept, partially purified by HisTrap, ~73 kDa
For the protein B1, the values for the Km in data set [1] and in data set [2] were 15.3 ± 0.87 mM and 4.20 ± 0.18 mM, respectively. Further, the kcat turned out to be 845.0 ± 0.00 s⁻¹ in data set [1] and 1.89 ± 0.11 s⁻¹ in data set [2].
